# Assay results reported in paper PMC3077550 (Nature cell biology, 2011).
# T1: GST-PP2AB’α (Arabidopsis thaliana, UniProt O04375 1-495)
# T1 sequence (looked up): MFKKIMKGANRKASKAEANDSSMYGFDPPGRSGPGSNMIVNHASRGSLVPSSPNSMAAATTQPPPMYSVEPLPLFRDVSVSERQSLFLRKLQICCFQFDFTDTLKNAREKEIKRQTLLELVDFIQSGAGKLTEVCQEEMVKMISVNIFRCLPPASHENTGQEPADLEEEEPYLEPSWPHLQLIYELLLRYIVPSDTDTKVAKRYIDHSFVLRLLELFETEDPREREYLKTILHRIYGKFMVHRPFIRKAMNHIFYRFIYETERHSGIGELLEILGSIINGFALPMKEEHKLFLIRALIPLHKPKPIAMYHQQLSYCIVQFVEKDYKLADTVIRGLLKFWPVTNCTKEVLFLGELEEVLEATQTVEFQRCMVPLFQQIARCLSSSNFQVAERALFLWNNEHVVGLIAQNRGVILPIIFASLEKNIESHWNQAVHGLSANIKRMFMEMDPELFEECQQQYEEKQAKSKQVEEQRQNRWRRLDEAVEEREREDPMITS
# T2: GST-BIN2 (Arabidopsis thaliana, UniProt Q39011 1-380)
# T2 sequence (looked up): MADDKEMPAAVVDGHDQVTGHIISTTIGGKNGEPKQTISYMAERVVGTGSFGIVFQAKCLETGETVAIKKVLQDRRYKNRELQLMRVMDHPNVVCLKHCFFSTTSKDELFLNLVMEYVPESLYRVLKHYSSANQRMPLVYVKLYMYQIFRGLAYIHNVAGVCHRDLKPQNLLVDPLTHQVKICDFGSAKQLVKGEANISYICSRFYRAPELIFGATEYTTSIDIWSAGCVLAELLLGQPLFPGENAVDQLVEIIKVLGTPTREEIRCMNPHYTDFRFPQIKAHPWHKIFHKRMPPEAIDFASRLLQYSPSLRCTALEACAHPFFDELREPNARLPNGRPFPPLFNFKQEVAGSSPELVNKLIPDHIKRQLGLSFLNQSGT
# Columns and labels:
# GST-PP2AB’α = molecular target: T1, GST-PP2AB’α; experiment: far-Western, overlay or dot blot
# GST-BIN2 = molecular target: T2, GST-BIN2; experiment: far-Western, overlay or dot blot
binding result (GST-PP2AB’α),binding result (GST-BIN2),Binder
binds,binds,"MBP-BZR1 (unphosphorylated) (natural protein, Arabidopsis thaliana, UniProt Q8S307 1-336, looked up) MTSDGATSTSAAAAAAAAAAARRKPSWRERENNRRRERRRRAVAAKIYTGLRAQGDYNLPKHCDNNEVLKALCVEAGWVVEEDGTTYRKGCKPLPGEIAGTSSRVTPYSSQNQSPLSSAFQSPIPSYQVSPSSSSFPSPSRGEPNNNMSSTFFPFLRNGGIPSSLPSLRISNSCPVTPPVSSPTSKNPKPLPNWESIAKQSMAIAKQSMASFNYPFYAVSAPASPTHRHQFHTPATIPECDESDSSTVDSGHWISFQKFAQQQPFSASMVPTSPTFNLVKPAPQQMSPNTAAFQEIGQSSEFKFENSQVKPWEGERIHDVGMEDLELTLGNGKARG"
binds,binds,"MBP-bzr1-1D (natural protein, Arabidopsis thaliana, UniProt Q8S307 1-336, looked up) MTSDGATSTSAAAAAAAAAAARRKPSWRERENNRRRERRRRAVAAKIYTGLRAQGDYNLPKHCDNNEVLKALCVEAGWVVEEDGTTYRKGCKPLPGEIAGTSSRVTPYSSQNQSPLSSAFQSPIPSYQVSPSSSSFPSPSRGEPNNNMSSTFFPFLRNGGIPSSLPSLRISNSCPVTPPVSSPTSKNPKPLPNWESIAKQSMAIAKQSMASFNYPFYAVSAPASPTHRHQFHTLATIPECDESDSSTVDSGHWISFQKFAQQQPFSASMVPTSPTFNLVKPAPQQMSPNTAAFQEIGQSSEFKFENSQVKPWEGERIHDVGMEDLELTLGNGKARG"
